Measured values from the nanobody polyreactivity screen of Harvey et al. (2022).

assay: yeast display, Sf9 membrane polyspecificity reagent, FACS + sequencing; frameworks hold sequencing errors
Procedure, shortened: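 Nanobodies from a synthetic yeast display library (Saccharomyces cerevisiae BJ5465), induced 36–48 hours with galactose, were stained 1 hour at 4 °C with 10% biotinylated, detergent-solubilized Sf9 membrane reagent, enriched on streptavidin microbeads, then FACS-sorted. Anti-HA (expression) and streptavidin (reagent binding) fluorescence set low and high (top ~1%) gates. Polyreactivity labels come from the gate of origin. Genes were colony-PCR amplified, MiSeq 2 × 250 sequenced and filtered by CDR length.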

Sequence | polyreactivity (PSR sort gate)
QVQLVESCGGLVQAGGSLRISCAASGLTIRYYAMGWYRHAPWKERELVAAISWSGGSTYYADSVKGRFTISRDNAKNTVYLLMNILKPEDTAVYYCNTVGRSSSLSVFLIGYGYWGQGTQVNVSS | high polyreactivity
QVQLVESCGGLVQAGGSLRLICAASGRTFYHNAMGWYRQAPGKERELVATINSGGSTYAESVKGRFTISRDNAKNTVYFQMNSLKPEDTAVYYCAATFWSRSRFYYRYDYWGQGTQVTVSS | high polyreactivity
QVQLVESCGGLVQAGGSLRLSCAASGFIFFANTMGWYRQAPGKERELVAAITSDGSTYYADSVKGRFTISRDNAKNTVYLQMNSLKPEDTAVYYCNAQSNYADLAYWNDYWGQGTKVTVSS | low polyreactivity
QVQLVESCGGLVQAGGSLRLSCAASGFIFWCYTMGWYIQAPGKERELVAAITGSGGSTYYADSVKGRFTISRDNAKNTVNFQMNSLKPEDTAVYYCNAVSAYKWEYYYWGQGTLVTVSS | high polyreactivity
QVQLVESCGGLVQAGGSLRLSCAASGGTFGPNAMGWYRQAPGKERELVARISTSGGSTTYYADSVKGRFTISRDNAKNTFYLHMNSLKPEDTAVYYCAADYKPYYRRRYDYWGQGTQVTVSS | low polyreactivity
QVQLVESCGGLVQAGGSLRLSCAASGIIFEGNTLGWYRQAPGKEREFVAAISRNGGSTSYADSVKGRFTISRDNAKNTVYLQINSLKPEDTAVYYCAADVESFWGWRYEYWGQGTQVTVSS | low polyreactivity
QVQLVESCGGLVQAGGSLRLSCAASGITFFGYDMGWYRQAPWKEWELVAAITSTGRTYYADSVKGRFTISRDNAKKTDYLQMNSLTPEDTAVYYCNAARYPRSWYYKLDYWGQGTQVTVSS | high polyreactivity
QVQLVESCGGLVQAGGSLRLSCAASGLIFPVYAMGWYRQAPGKEREFVASIWRGGTTYYADSVKGRFTISRDNEKNTVYLQMNSLKPEDTAVYYCAARDYPRGLVFPFTKYDYWGQGTQVTVSS | high polyreactivity
QVQLVESCGGLVQAGGSLRLSCAASGLTFYQNDMGWYRQAPGKERELVAAITLSGDITYYADSVKGRFTISRDNAKNTVYLQMNSLKPEDTAVYYCAADGYLLYVQHPNGRRYDYWGQGTQVTVSS | low polyreactivity
QVQLVESCGGLVQAGGSLRLSCAASGRIFSYNPMGWYRQAPGKERELVATITSGDSTNYADSVKGRFTISRDNSKNSVYLQMNSLKQEDTAVYYCATDIYGLPVDYWGQGTQVSVSS | low polyreactivity
QVQLVESCGGLVQAGGSLRLSCAASGRTFGRNAMGWYRQAPGEREMVAVISRGGSTYYADSVKGRFTISRDNAKNTVYLQMNSLKPEDTAVYYCNADTVYTRTAPYDYWGQGTQVTVSS | low polyreactivity
QVQLVESCGGLVQAGGSLRLSCAASGRTFGYYAMGWYRQAPGKEREFVAAITAGGGSTYYADSVKGRFTISRDNAKNTVYLQMNSLKPEDTAVYYCAKRDYWGQGTQVTVSS | high polyreactivity
QVQLVESCGGLVQAGGSLRLSCAASGRTFVTYAMGWYRQAPGKERELVAAISASGGSTYYADSVKGRFTISRDNAKNTVYFQMNSLKPEDTAVYYCAKTYFLATPYGYWGQGTQVTVSS | low polyreactivity
QVQLVESCGGLVQAGGSLRLSCAASGSIFGYNDMGWYRQAPGKERELVATLTWGGGRTRYADSVKGRFTISRDNAKNTVYLQMNSLIPEDTAVDYCAADKRSYSYVRPPRNHEDYWGQGTQVTVSS | low polyreactivity
QVQLVESCGGLVQAGGSLRLSCAASGSISFYAMGWYRQAPGQERELVAAITTSGGRTYYADSVKGRFTISRDNAKNTVYLQMNSLKPEDTAVYYCAQQGWYYSNRDGYRWYDYWGQGTQVTVSS | high polyreactivity
QVQLVESCGGLVQAGGSLRLSCAASGSISYYYAMGWYRQAPGKERELVAAITRTGTTNYADSVKGRFTISRDNAKNTVYLQMNSLKPEDTAVYYCAKRSTGRLQSYNYWGQGNQVTVSS | low polyreactivity
QVQLVESCGGLVQAGGSLRLSCAASGSTFLVNAMGWYRPAPGKERELVAASSRGGGSTYYADSVKGRFTISRDKAKNTVYLQMNSLKPEDTAVYYCNARKWTIYGAHYYWGQGTQVTVSS | high polyreactivity
QVQLVESCGGLVQAGGSLRLSCAASGSTLATYAMGWYRQAPWKERELDAVITRGGRTYYADSVKGRFTISRDNAKNTVYLQMNSLKPEDTAVFYCNATRAGENPDGGDEYWGQGTQVTVSS | high polyreactivity
QVQLVESCGGLVQAGGSLRLSCAASRSTFVKYTMGWYRQAPGKERELVATITWSGGSTYYADSVKGRFTISRDNAKNTVYLQLMSLKPEDTAVYYGAIDSGVYRTYQGRWYYYTDFYWGQGTQVTVSS | low polyreactivity
QVQLVESCGGLVQAGGSLRLSCAATGRIFAGYVMGWYRPAHGKERELVAAISWRGGRTYYADSVKGRFTISRDNAKNTVYLQMISLKPEDTAVYYCNAPYAVGNPADDYWGQGTQVTVSS | high polyreactivity
QVQLVESCGGLVQAGGSLRLSCDASGSIFIKKTMGWYRQAPGKEREMVAAISWSGGSTYYADSVKGRFTISRDNAKNTVYLQMNSLKPEDTAVYYCNAYYFWRTWFDTYDYWGQGTQVTVSS | high polyreactivity
QVQLVESCGGLVQAGGSLRLSSAASGSIFEYNAMGWYRQEPGKERELVGAITSTDSTYADSVKGRFTISRDNAKNTVYLQMNSLKPEDTAVYYCAAEDVIYYLTGQWREYDYWGQGTQVTVSS | low polyreactivity

Sequence | polyreactivity (PSR sort gate)
QVQLVESCVVLVQAGGSLRLSCAASGSIFGYYAMGWYRQAPGKERELVAAISDGGTITYYADSVKGRFTISRDHAKNTVYLQMNSLKPEVTAVYYCAARSPPRYYEHRFYYWGQGTQVTVSS | high polyreactivity
QVQLVESGAGIVQAGGSLRLSCAASGRTFLDYTMGWYRQAPGKERELVAAIRTSAGSTYYADSVKGRFTISRDNAKKTVYLQLNSLKPEDTAVYYCAAVYYVHYYYSYDYWGQGTQVTVSS | low polyreactivity
QVQLVESGAGLFQAGGSLRLSCAASGRIFNQYGMAWYRQAPGKERELVAAIRSGDSTNYADSVKGRFTISRDNAKNTVFLQMNSLKPEVTAVYYCARDRPGDYDGYDYCGQGTQVTVSS | low polyreactivity
QVQLVESGAGLFQAGGSLRLSCAASGRTFVKNAMAWYRQAPGKERELVAAISTSGGRTYYADSVKGRFTISRDNAKKTVYLQMNSLKPEDTAVYYCGAVLYATRPVYGFDSCGQGTQVTVSS | high polyreactivity
QVQLVESGAGLVEAGASLRLSCAASGSNFRINAMGLYRQAPGKERELVAAITASGGSTYADSVKGRFTISRDNAKNTVYLQMNSLKPEDTAVYDCAARYFPRHRYYFWGQVTQVTVSS | high polyreactivity
QVQLVESGAGLVHAGGSLRLSCAASGSIFEGYAMGWYRQAPGKERELVARITSDDDSTYYADSVKGRFTNSRDTAKNTVYLQMYSLKPEDTAVFYCNADYYWTTLAMDSWGQGTQVTVSS | low polyreactivity
QVQLVESGAGLVHAGGSLRLSCASSGRTFAKYAMGWYRQAPGKERELVAAISGRSGSTYYADSVKGRFTISRDNPKNTVYLQMNSLKPEDTAVYYCAASGGSRYDWVQGTQVTVSS | high polyreactivity
QVQLVESGAGLVMAGGSLRLSCAASGRTISIYAMGWYRQAPGKERQLVAAISQSSSITYYADSVKGRFTLSRDNANNTVYLQMISLKPEDTACYYCNAVVLRYQGSWLEYWGQGTQVTVSS | low polyreactivity
QVQLVESGAGLVQAGCRLRLSCASSGIIFSPNAIGWYRQAPGKERELVAAISKRGGSTYYADSVKGRFTISRDNAKNTVYLQLHSLKQEDTAVYYCAKRQQQSSGYDYWGQGTQVTVSS | high polyreactivity
QVQLVESGAGLVQAGGRLRLRCDASGFIFRYYAMGWYRQAPGKERELVAAISESGASTYYADSVKGRFTISRDNAKNTVYLQMNSLKPEDTAVYYCAAKPRKSGPYYFYDLNYWGQGTQVTVSS | high polyreactivity
QVQLVESGAGLVQAGGRLRLSCADSGYIFKSYAIGWYRQAPGKEREFVAAISWSGGSTYADSVKGRFTISRDNAKNTVYLQMNSLKPEDTAVYSCAAVDYYYYGVYSSWYEYWGQGTQVTVSS | low polyreactivity
QVQLVESGAGLVQAGGRLRLSCAPSGSTFIYNAMGWYRQAPGKERELVASITGGTSTNYADSVKGRFTISRDNAKNTVYLQMNSLKPEDTAVYYCAAVWVWGEYDYWGQGTQVTVSS | low polyreactivity
QVQLVESGAGLVQAGGSLRLSCAASGFIFVKYVMGWYRQAPGKERELDATITNGVSTNYADSVKGRFTISRDNAKNTVYLQMNSLKPEDTAVYYCNTGSTAWYFSGDYWGQGTQVTVSS | low polyreactivity
QVQLVESGAGLVQAGGSLRLSCAASGFTFKSNAMGWYRQAPGKERELVATISWGGASTSYADSVKGRFTISRDNAKNNVYLQMNSLKPEDTAVYYCKVRAQRRHGGYDHWGLGTQVTVSS | low polyreactivity
QVQLVESGAGLVQAGGSLRLSCAASGIIFASNAMGWYRQAPGKERELLATINWTDSSTYYADSVKGRFTISRDNAKNTVYLQMNSLKPEDTAVYYCNAVPHWFYRYGRYDYWGQGTQVTVSS | low polyreactivity
QVQLVESGAGLVQAGGSLRLSCAASGIIFTDYAMGWYRQAPGKERELVAANSSGGGSTYYADSVKGRFTISRDNAKNSVYLQLNSLKPDDTAVYDCAAQSSGSYGFDHWGQGTQVTVSS | high polyreactivity
QVQLVESGAGLVQAGGSLRLSCAASGRIFQYNAMGWYRQAPGKERELVAAISYSTTRTYYAESVKSRFTISRDNAKITVYLQMKSLKPEVSGVYYCAARGYFWSSYKYDYWGLGTQVTVSS | high polyreactivity
QVQLVESGAGLVQAGGSLRLSCAASGRIFVYNTMGWYRQAPGKEREFVAAITRSGGSTTYADSVKGRFTISRANAKNTVYLQRNSLKPEDTAVYYCAAGPFISYWVSRFGYWGQGTQVTVSS | high polyreactivity
QVQLVESGAGLVQAGGSLRLSCAASGRTFFVNAMGWYRQAPGKERELVATITFSGDSTYYADSVKGRFTISRDNAKNTVFLQMNSLKPEDTAVYYCAARTGYGYTRYEYWGQGTQVTVSS | high polyreactivity
QVQLVESGAGLVQAGGSLRLSCAASGRTFSRNAMGWYRQPPGKERELVATISRGGGITFYADSVKGRYTISRDNAKNTVYLQMNSLKPEDTAVYYCNADVRYVGLRRIVDYWGQGTQVTVSS | high polyreactivity
QVQLVESGAGLVQAGGSLRLSCAASGRTLTYNAMGWYRQAPGKEREFVAAISVGGGSTYADSVKGRFTISRDNAKNTVYLQMNRLKPEDTAVYYCAAAYTKLYYYWGQGTQVTVSS | low polyreactivity
